# “Also recorded” adds a separate entry of the source.
# B1: Propionicin T1: new bacteriocin isolated from Propionibacterium thoenii 419 and LMG 2792; prebacteriocin SEQ ID NO:11, N-terminal sequence SEQ ID NO:9 (protein, listed as Propionibacterium thoenii)
# chain: MKKTLLRSGTIALATAAAFGASLAAAPSAMAVPGGCTYTRSNRDVIGTCKTGSGQFRIRLDCNNAPDKTSVWAKPKVMVSVHCLVGQPRSISFETK
# How the values were obtained:
# Listeria monocytogenes = settings: food-borne pathogen; cited from earlier work
# [1] = system: P. acidipropionici ATCC 4965; experiment: effect of the bacteriocin on the viability of sensitive cells; type: cell-based, Propionibacterium acidipropionici
# Description: Effect of the bacteriocin on the viability of sensitive cells. Partially purified bacteriocin from P. thoenii 419 eluted in 0.3 M NaCl from an ion-exchange column was added in variable amounts to a 48 hr culture of P. acidipropionici grown in GM17, diluted 100-fold. Optical density at 620 nm and viable count (by dilution and plate counting) were determined at time intervals.
# The effect of propionicin T1 on viability of sensitive cells. Several experiments were performed to show the effect of propionicin T1 on the viability of the indicator cells. Cultures of P. acidipropionici ATCC 4965 were exposed to different amounts of partially purified propionicin T1. […] More than 99% of the cells were killed after 40 hr (FIG. 2A). The same result was also obtained using 100 or 4000 BU/ml. […] This increase was followed by a decrease in optical density (FIG. 2B).
# [2] = stability of propionicin T1 (heat, acid, storage); type: physicochemical
# Description: (§1) Bacteriocin assay. Antimicrobial activity was determined by a microtiter plate assay (8). Each well of the microtiter plate contained 50 μl of twofold serial dilutions in SLB or GM17 of the bacteriocin samples, and 150 μl of a 100-fold-diluted fresh overnight culture of the indicator strain. The plates were incubated at 30° C. for 24 to 48 hr, and growth inhibition of the indicator organisms was measured spectrophotometrically at 620 nm with a microtiter plate reader. One bacteriocin unit (BU) was defined as the amount of bacteriocin that inhibited the growth of the indicator organism by 50% as compared with a control culture without bacteriocin.
# Stability of propionicin T1. The stability of the peptide was tested, by exposing the bacteriocin (0.3 M NaCl eluate from the cation exchange column) to temperatures of 60° C. and 100° C. for 15 min and to pH 2.5 for one hour. […] Thus, propionicin T1 is heat stable and acid stable.
# [3] = system: Propionibacterium freudenreichii; experiment: overlay assay, ten strains of Propionibacterium freudenreichii; type: cell-based; settings: bacteriocin
# Description: (§2) Screening for antimicrobial activity. Colonies of strains of propionibacteria were grown on agar plates for 72 to 120 hr. A lawn of 5 ml GM17 soft agar containing 500 μl of a fresh culture of the indicator organisms was then poured over the plates. After incubation for 24 to 48 hr at 30° C., the colonies were examined for zones of growth inhibition.
# [4] = system: Lactobacillus sake NCDO 2714; experiment: overlay assay, zones of growth inhibition around producer colonies; type: cell-based; settings: bacteriocin
# Description: as §2
# [5] = system: all strains of Propionibacterium jensenii tested; experiment: inhibition spectrum of propionicin T1; type: cell-based
# Description: as §2, §1
# [6] = system: all strains of Propionibacterium thoenii tested; experiment: inhibition spectrum of propionicin T1; type: cell-based
# Description: as §2, §1
# [7] = system: all strains of Propionibacterium acidipropionici tested; experiment: inhibition spectrum of propionicin T1; type: cell-based
# Description: as §2, §1
Molecule,activity against Listeria monocytogenes (Listeria monocytogenes),"optical density (620 nm) of bacteriocin treated cultures ([1]; 100 or 1000 BU/ml culture, FIG. 2B)","cells killed, other bacteriocin amounts ([1]; 100 or 4000 BU/ml)","viable count ([1]; after 4 hr, plate counting)","cells killed ([1]; after 40 hr, 1000 BU/ml culture, plate counting, partially purified)",mode of action on indicator cells ([1]; plate counting),"antimicrobial activity after heat exposure ([2]; 60° C. for 15 min, 0.3 M NaCl eluate from cation exchange column)","antimicrobial activity after heat exposure ([2]; 100° C. for 15 min, 0.3 M NaCl eluate from cation exchange column)","antimicrobial activity after acid exposure ([2]; pH 2.5 for one hour, 0.3 M NaCl eluate from cation exchange column)",bacteriocin activity after storage at room temperature ([2]; room temperature for 24 hr),"bacteriocin activity after freezing, thawing and storage ([2]; storage at 4° C. or −20° C. up to six months)",activity against Propionibacterium freudenreichii [3],activity against Lactobacillus sake NCDO 2714 [4],activity against Propionibacterium jensenii [5],activity against Propionibacterium thoenii [6],activity against Propionibacterium acidipropionici [7]
"pediocin PA1 (KYYGNGVTCGKHSCSVDWGKATTCIINNGAMAWATGGHQGNHKC; Bacteriocin pediocin PA-1; UniProt P29430 19-62, looked up) [antibacterial protein produced by Pediococcus acidilactici PAC1.0]",very active,,,,,,,,,,,,,,,
nisin,not very sensitive,,,,,,,,,,,,,,,
B1,,increase in the optical density for several hours after addition of bacteriocin,same result,reduction in viable count,More than 99%,bactericidal effect; also recorded: slow bactericidal mode of action,No reduction in antimicrobial activity,No reduction in antimicrobial activity,No reduction in antimicrobial activity,no effect on the bacteriocin activity,no effect on the bacteriocin activity,no activity; also recorded: no strains of P. freudenreichii were inhibited,active,active,active,active

# Source: US7179889B2, “Propionicin T1 polypeptide, a bacteriocin from Propionibacterium thoenii” (Provisage As, priority 2001, dated 2007)
